Experimental data taken from US20240360214A1 (Pfizer, published 2024).
Blank lines part the entries; values can stand above or below the binder they belong to.

Columns and labels:
[1] = target: T1, LILRB2 expressed on THP1 cells (human, UniProt Q8N423 22-597); assay: flow cytometry competition with PE HLA-G tetramer on THP1-LILRB2 cells; lower end of the printed range 1.7-6 nM
T1 construct: whole, on cells; also called THP1 LILRB2 expressing cells; THP1-LILRB2 cells
Experimental: (§1) LILRB1 or LILRB2 overexpressing THP1 cells were prepared in FACS buffer (0.5% BSA in PBS) and seeded in 100 μl/well (96 well plate) at 1λ10⁶ cells/ml concentration. The tested antibodies were serially diluted 3-fold into assay buffer starting from 200 nM. 40 μl of serial diluted antibody together with 40 μl of PE labelled HLA-G tetramer (FRED HUTCH IMT40509) at 2 ug/ml were added to each well and incubated on ice for 1 hour. The cells were washed 2 times with FACS buffer and resuspended in 50 μl/well FACS buffer containing 1:1000 dilution of LIVE/Dead fixable violet dead cell stain (Invitrogen #L34964), incubated on ice for 15 minutes. The cells were then washed with FACS buffer for 2 times and resuspended in 80 μl of Cytofix buffer (BD Cat #554655).

huLILRA5 = huLILRA5 (human, UniProt A6NI73 42-268, limits assumed); assay: SPR (Biacore), antibody captured
huLILRA1 = huLILRA1 (human, UniProt O75019 17-461, limits assumed); assay: SPR (Biacore), antibody captured
huLILRA2 = huLILRA2 (human, UniProt Q8N149 24-449, limits assumed); assay: SPR (Biacore), antibody captured
[2] = target: T1, LILRB2 expressed on THP1 cells; assay: flow cytometry competition with PE HLA-G tetramer on THP1-LILRB2 cells (THPB2)
Experimental: as §1

[3] = target: T2, human LILRB2 (huLILRB2), purified recombinant protein (human, UniProt Q8N423 22-458, limits assumed); assay: SPR (Biacore 8K, 37 C), antibody captured by anti-human Fc, huLILRB2 as analyte, 1:1 fit
T2 construct: Bought protein, used as the SPR analyte and as the ELISA coat; also called huLILIB2
Experimental: (§2) Biacore kinetic assays were conducted at 37° C. with a collection rate of 10 Hz using the Biacore 8K and 8K+ instruments (Cytiva). […] The final capture levels of the antibodies ranged from 20 resonance units (RU) to 60 RU. HBS-EP+pH 7.4 (10 mM HEPES pH 7.4, 150 mM NaCl, 3 mM EDTA, 0.05% Tween 20) was used as sample and running buffer. Flow cell 1 was used as a reference flow cell. Two-fold serial dilutions of human LILRB2 or LILRB1 (R&D Systems, Catalog number: 8429-T4) were prepared with concentrations from 45 nM to 1.667 nM for LILRB2; 405 nM to […] for LILRB1. Dilutions were prepared in duplicate and injected over all flow cells for 60 s at flow rate of 50 μl per minute. Dissociation was monitored for 600 s and the surface was regenerated with two 30 s injections of 3M MgCl₂ at flow rate of 50 μl per minute. The resulting data was double referenced (Myszka, D. G. Improving biosensor analysis. J. Mol. Recognit. 12:279-284; (1999). Rate constants and affinities were determined by fitting the sensorgram data to a Langmuir 1:1 model using Biacore Insight Evaluation software version 3.0.12 (Cytiva).

[4] = target: T1, LILRB2 expressed on THP1 cells; assay: flow cytometry competition with PE HLA-G tetramer on THP1-LILRB2 cells; upper end of the printed range 1.7-6 nM
Experimental: as §1

[5] = target: T3, LILRB1 expressed on THP1 cells (human, UniProt Q8NHL6 24-650); assay: flow cytometry competition with PE HLA-G tetramer on THP1-LILRB1 cells
T3 construct: whole, on cells; also called THP1 LILRB1 expressing cells; THP1-LILRB1 cells
Experimental: as §1

[6] = target: T4, human LILRB1 (huLILRB1), purified recombinant protein from R&D Systems (human, UniProt Q8NHL6 24-458, limits assumed); assay: SPR (Biacore 8K, 37 C), antibody captured by anti-human Fc, huLILRB1 as analyte, 1:1 fit
T4 construct: Bought protein, used as the SPR analyte and as the ELISA coat; The catalog number 8429-T4 is printed once for 'human LILRB2 or LILRB1'
Experimental: as §2

[7] = target: T3, LILRB1 expressed on THP1 cells; assay: flow cytometry competition with PE HLA-G tetramer on THP1-LILRB1 cells (THP-B1)
Experimental: as §1

T1 sequence (Q8N423 22-597): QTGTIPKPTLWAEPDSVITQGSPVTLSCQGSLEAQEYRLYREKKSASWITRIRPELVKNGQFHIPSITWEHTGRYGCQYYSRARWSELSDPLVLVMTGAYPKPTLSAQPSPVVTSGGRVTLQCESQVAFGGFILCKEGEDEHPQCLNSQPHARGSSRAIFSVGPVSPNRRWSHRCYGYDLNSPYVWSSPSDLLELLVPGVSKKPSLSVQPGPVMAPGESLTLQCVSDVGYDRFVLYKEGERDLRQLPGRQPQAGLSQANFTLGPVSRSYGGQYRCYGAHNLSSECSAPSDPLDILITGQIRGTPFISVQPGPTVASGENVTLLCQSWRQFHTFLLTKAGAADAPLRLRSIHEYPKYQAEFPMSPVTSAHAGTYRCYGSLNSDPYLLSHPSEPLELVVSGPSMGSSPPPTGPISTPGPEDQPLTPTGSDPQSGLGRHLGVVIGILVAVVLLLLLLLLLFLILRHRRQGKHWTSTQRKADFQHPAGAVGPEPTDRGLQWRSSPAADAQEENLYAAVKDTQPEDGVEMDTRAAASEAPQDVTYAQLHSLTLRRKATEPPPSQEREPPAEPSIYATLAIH
T2 sequence (Q8N423 22-458 limits assumed): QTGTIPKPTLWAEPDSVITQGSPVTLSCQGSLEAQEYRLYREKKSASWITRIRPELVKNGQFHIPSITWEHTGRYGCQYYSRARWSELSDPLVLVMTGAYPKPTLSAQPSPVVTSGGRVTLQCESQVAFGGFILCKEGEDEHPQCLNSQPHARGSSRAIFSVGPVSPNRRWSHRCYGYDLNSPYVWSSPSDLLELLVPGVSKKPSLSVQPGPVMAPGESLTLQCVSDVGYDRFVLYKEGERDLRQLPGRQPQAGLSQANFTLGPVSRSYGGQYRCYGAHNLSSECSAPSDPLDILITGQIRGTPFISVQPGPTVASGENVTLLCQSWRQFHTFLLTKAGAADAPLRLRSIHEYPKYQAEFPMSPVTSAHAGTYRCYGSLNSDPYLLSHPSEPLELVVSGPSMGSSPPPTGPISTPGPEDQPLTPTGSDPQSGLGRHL
T4 sequence (Q8NHL6 24-458 limits assumed): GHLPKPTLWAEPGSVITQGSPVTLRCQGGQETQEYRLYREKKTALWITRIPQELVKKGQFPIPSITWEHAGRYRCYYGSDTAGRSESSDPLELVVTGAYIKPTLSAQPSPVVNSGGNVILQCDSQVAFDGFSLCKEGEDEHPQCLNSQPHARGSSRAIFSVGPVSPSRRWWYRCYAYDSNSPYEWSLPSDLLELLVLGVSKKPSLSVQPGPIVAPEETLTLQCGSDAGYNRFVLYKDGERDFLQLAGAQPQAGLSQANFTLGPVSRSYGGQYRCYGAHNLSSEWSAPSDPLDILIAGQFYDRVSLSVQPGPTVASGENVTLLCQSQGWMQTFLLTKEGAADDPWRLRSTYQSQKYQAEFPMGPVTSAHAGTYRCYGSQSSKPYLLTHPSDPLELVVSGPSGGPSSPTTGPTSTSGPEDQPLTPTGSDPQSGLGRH
T3 sequence (Q8NHL6 24-650): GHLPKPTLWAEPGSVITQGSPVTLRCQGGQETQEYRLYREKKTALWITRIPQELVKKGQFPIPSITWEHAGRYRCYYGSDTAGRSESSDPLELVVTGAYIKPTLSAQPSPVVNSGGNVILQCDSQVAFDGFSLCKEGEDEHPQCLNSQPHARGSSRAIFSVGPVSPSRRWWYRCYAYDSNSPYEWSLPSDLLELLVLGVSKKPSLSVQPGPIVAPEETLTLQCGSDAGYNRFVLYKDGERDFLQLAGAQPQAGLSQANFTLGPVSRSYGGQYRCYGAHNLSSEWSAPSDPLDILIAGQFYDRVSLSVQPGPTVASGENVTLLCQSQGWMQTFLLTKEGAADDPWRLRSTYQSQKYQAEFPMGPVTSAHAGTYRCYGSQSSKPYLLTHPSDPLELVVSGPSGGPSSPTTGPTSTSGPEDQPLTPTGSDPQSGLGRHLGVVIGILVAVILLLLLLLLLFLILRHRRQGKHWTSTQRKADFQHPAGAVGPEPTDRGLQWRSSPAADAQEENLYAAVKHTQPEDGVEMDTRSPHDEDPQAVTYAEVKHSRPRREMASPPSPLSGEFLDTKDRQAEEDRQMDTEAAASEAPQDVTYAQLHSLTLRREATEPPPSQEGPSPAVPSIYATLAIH
Sequence of huLILRA2 (Q8N149 24-449 limits assumed): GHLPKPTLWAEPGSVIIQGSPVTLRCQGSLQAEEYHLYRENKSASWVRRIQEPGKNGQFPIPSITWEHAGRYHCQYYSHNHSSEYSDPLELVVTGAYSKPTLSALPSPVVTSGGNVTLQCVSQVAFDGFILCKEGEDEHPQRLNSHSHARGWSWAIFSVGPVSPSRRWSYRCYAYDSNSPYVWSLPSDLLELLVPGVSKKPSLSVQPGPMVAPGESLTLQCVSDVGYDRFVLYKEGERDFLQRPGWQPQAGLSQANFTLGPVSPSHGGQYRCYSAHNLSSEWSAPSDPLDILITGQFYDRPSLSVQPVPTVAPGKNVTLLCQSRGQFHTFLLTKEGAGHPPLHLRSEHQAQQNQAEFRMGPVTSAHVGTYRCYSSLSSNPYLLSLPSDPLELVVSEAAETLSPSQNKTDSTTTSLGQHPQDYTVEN
Sequence of huLILRA1 (O75019 17-461 limits assumed): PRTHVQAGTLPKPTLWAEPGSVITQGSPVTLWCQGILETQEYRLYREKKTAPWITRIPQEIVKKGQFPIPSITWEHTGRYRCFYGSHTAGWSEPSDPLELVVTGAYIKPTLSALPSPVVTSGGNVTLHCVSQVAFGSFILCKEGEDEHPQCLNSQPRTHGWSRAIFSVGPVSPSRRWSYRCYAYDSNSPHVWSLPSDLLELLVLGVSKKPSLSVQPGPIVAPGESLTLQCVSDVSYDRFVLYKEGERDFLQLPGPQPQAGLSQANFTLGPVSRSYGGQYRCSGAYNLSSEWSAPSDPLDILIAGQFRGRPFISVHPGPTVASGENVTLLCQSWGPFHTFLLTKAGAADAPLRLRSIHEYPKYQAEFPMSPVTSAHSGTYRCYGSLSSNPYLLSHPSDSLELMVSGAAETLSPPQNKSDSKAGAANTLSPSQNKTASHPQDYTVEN
Sequence of huLILRA5 (A6NI73 42-268 limits assumed): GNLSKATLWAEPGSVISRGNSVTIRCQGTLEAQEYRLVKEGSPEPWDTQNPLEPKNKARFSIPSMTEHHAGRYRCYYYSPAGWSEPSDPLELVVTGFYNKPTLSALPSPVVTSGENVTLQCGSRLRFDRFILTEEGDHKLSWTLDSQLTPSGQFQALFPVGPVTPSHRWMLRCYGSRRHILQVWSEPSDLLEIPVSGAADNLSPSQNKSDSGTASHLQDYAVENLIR

IC50 [1]: ≥ 1.7 nM
binding result (huLILRA5): no binding
binding result (huLILRA1): no binding
binding result (huLILRA2): no binding
EC50 [2]: 3.43 nM
Kd [3]: 0.59 nM
koff [3]: 0.000276 s⁻¹
kon [3]: 810000 M⁻¹ s⁻¹
t½ [3]: 54.2 min
IC50 [4]: ≤ 6 nM
B1: anti-LILRB2 antibody Ab-B2-1825 (antibody, human IgG1, lambda, V domains shown)
VH: EVQLLESGGGLVQPGGSLRLSCAASGFTFSSYAMSWVRQAPGKGLEWVSAISGSGGSTYYADSVKGRFTISRDNSKNTLYLQMNSLRAEDTAVYYCWRWLNLGDAFDIWGQGTMVTVSS
VL: QSVLTQPPSASGTPGQRVTISCTGSSSNIGSNTVNWYQQLPGTAPKLLIYSDNQRPSGVPDRFSGSTSGTSASLAISGLRSEDEADYFCATWEDVLAGYVVFGGGTKLTVLG

IC50 [5]: 1.5 nM
binding result (huLILRA5): no binding
binding result (huLILRA1): no binding
binding result (huLILRA2): no binding
Kd [6]: 26 nM
koff [6]: 0.014 s⁻¹
kon [6]: 539000 M⁻¹ s⁻¹
t½ [6]: 0.825 min
EC50 [7]: 2.69 nM
B2: anti-LILRB1 antibody Ab-B1-1704 (antibody, human IgG1, lambda, V domains shown)
VH: EVQLVESGGGLVQPGGSLRLSCAASGFTFSSYAMHWVRQAPGKGLEWVAVISYDGSNKYYADSVKGRFTISRDNAKNSLYLQMNSLRAEDTAVYYCARDKGIGTSPLDYWGQGTLVTVSS
VL: SYELTQPPSVSVSPGQTASITCGGNNIGSKGVHWYQQKPGQSPVLVISYDSDRPSGIPERFSGSNSGNTATLTISGTQAMDEADYYCQVWDSSTRVFGTGTKVTVLG
